Eight molecules from patent US6723697B2, “IL-16 antagonists” (Research Corporation Technologies, Inc., priority 1999, dated 2004) can be followed below.

Experiment [1] concerns the target T1, IL-16 (Mus musculus, UniProt O54824).
T1 construct: polyhistidine fusion protein containing the 119 C-terminal residues encoded by the previously reported murine cDNA; polyhistidine (cleaved yes); made in house
T1 sequence (O54824 1204-1322): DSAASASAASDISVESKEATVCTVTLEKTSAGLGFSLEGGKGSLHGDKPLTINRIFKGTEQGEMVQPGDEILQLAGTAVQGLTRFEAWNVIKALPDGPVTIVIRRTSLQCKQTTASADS
The experiment in a line: IL-16-induced migration of human T-cells. It counts as cell-based. The following applies: for inhibition of IL-16-mediated biological activity (migration of human T-cells): concentration not given; for effect on IL-16-induced migration of human T-cells: any concentration.

Experiment [2] concerns the target T2, murine rIL-16 (Mus musculus, UniProt O54824).
T2 construct: polyhistidine fusion protein containing the 119 C-terminal residues encoded by the previously reported murine cDNA; polyhistidine (cleaved yes); made in house; host or cells: Escherichia coli strain HMS 174, vector pET16b
T2 sequence (O54824 1204-1322): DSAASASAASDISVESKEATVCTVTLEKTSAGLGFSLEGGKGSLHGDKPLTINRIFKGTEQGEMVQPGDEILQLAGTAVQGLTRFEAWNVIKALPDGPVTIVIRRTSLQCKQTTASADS
As to the kind of experiment: murine rIL-16-stimulated murine splenocyte migration, modified Boyden chamber. Type of experiment: cell-based. The following applies: rIL-16 10^-9 M; for IL-16-inhibitory activity (block of murine rIL-16-stimulated murine splenocyte migration): peptide concentration not given. As to the method: (§1) Cell migration was assessed using a modified Boyden chamber. […] Cell migration is expressed as the mean % control migration.
(§2) Results from multiple experiments were analyzed using Student's t test for paired variables, and Tukey's test for multiple variables. A P value<0.05 was considered significant.
Peptide B (aa 341-352) includes the sequence WQCLLS (residues 344-349, SEQ ID NO:4) which is 100% conserved in all the species examined. Peptide A (aa 327-338) and peptide C (aa 351-362) correspond to the N-terminal and C-terminal flanks of peptide B, respectively. A random scrambled 12-residue peptide (LSKQKMVSREGT) designated peptide D (SEQ ID NO:20) was used a negative control for nonspecific effects of peptide administration on splenocyte motility. Criteria for the design of peptide D included overall hydrophilicity, neutral charge and no cysteine residues (to prevent possible dimer formation).
Murine spleens were harvested from healthy 8-week male BALB/c mice (Jackson Laboratory). Splenocytes were isolated by grinding spleens between fiysted slides in M199 culture medium (M. A. Bioproducts), supplemented with 0.4% bovine serum albumin, 22 mM HEPES buffer, 100 with U/ml of penicillin, 100 μg/ml streptomycin (M199-HPS). Cells were washed and erytbrocytes were lysed in Gey's solution. Splenocytes were washed twice in M199, and resuspended to a final concentration of 2×10^6 cells/ml in RPMI1640 medium (BioWhittaker) supplemented with 10% FBS, 100 U/ml of penicillin and 100 μg/ml of streptomycin. By flow cytometry, 25% of the isolated splenocytes within the lymphocyte-cloud were CD4^+.
Recombinant murine IL-16 was produced in Escherichia coli (strain HMS 174; Novagen) as a polyhistidine fusion protein containing the 119 C-terminal residues encoded by the previously reported murine cDNA (Keane et al., (1998) J. Immunol. 160: 5945-5954), using the bacterial expression vector pET16b (Novagen). The recombinant product corresponds to the secreted form of natural murine IL-16 following cleavage by caspase-3 (Zhang et al. (1998) J. Biol. Chem. 273:1144-1149). The rIL-16 was purified by metal chelation chromatography, and the polyhistidine tag was cleaved with factor Xa (New England Biolabs).

For experiment [3], the target named is T3, rIL-16 (Mus musculus, UniProt O54824).
T3 construct: polyhistidine fusion protein containing the 119 C-terminal residues encoded by the previously reported murine cDNA; polyhistidine (cleaved yes); made in house; host or cells: Escherichia coli strain HMS 174, vector pET16b
T3 sequence (O54824 1204-1322): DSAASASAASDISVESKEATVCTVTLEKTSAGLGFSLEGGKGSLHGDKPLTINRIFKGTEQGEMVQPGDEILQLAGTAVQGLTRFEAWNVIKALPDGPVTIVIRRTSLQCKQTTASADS
As to the kind of experiment: IL-2R (CD25) induction on rIL-16-stimulated murine splenocytes, flow cytometry. Type of experiment: cell-based. The following applies: for % IL-2R+ CELLS: IL-16 + peptide, concentration not given (10^-6 M or 10^-7 M). As to the method: Induction of IL-2R (CD25) on rIL-16-stimulated murine splenocytes was detected by staining with FITC-conjugated anti-mouse IL-2R Ab (PharMingen). Cells were fixed with 10% formalin and stored at 4° C. in the dark before analysis with a Becton Dickinson FACScan 440 flow cytometer. The % IL-2R^+ cells was determined by subtracting the % isotype control positive from the total % positive events.
Peptides A (SEQ ID NO:15) and C (SEQ ID NO:19) were inhibitory at 10^−7 M, but not 10^−6 M. The negative control peptide D (SEQ ID NO:20) (10^−6 M) had no effect on rIL-16-stimulated IL-2R expression.
Murine splenocytes were incubated in control buffer, rIL-16 alone, or rIL-16 plus the indicated peptide. IL-2R expression was determined by flow cytometry using FITC-conjugated anti-IL-2R antibody. The % IL-2R^+ was determined by subtracting the FITC-conjugated isotype control antibody binding from the FITC-conjugated anti-IL-2R antibody binding. Isotype control antibody binding ranged from 1% to 4%.
(A flow cytometer gives signals particle by particle.)

The target of experiment [4] is T4, rIL-16 / GST-murine D3D4 fusion protein (Mus musculus, UniProt O54824).
T4 construct: murine IL-16 cDNA construct in pET-16b expressing the C-terminal 119 amino acids of IL-16; polyhistidine (pET-16b vector); made in house; host or cells: IL-16: coupled in vitro transcription-translation (TNT T7, Promega); GST-D3D4: E. coli, vector pGEX-5X.1
T4 sequence (O54824 1205-1322 limits assumed): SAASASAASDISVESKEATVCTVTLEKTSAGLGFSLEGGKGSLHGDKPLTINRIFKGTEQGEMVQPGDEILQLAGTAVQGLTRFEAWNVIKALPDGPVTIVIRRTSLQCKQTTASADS
The experiment in a line: in vitro binding of 35S-labeled murine rIL-16 to GST-murine D3D4 fusion protein. The following applies: each peptide 10^-5 M, 10 ug/ml. As to the method:
Complexes were isolated by centrifugation, then bound rIL-16 was released by boiling in SDS-PAGE buffer, resolved by SDS-PAGE, and detected by autoradiography. Specificity of the interaction between rIL-16 and D3D4 was assessed by competition with an excess of unlabeled rIL-16. ^35S-labeled rIL-16 incubated with GST (lane 1); ^35S-labeled rIL-16 incubated with GST-D3D4 (lane 2); ^35S-labeled rIL-16 plus excess unlabelled rIL-16 incubated with GST-D3D4 (lane 3); ^35S-labeled rIL-16 plus10 ug/ml peptide A (lane 4); ^35S-labeled rIL-16 plus 10 ug/ml peptide B (lane 5); ^35S-labeled rIL-16 plus 10 ug/ml peptide C (lane 6); ); ^35S-labeled rIL-16 plus 10 ug/ml peptide A and peptide B (lane 7). The arrow indicates the position of IL-16 on the gel. The identity of this band was re-confirmed by immunoblotting with anti-IL-16 antibody.
Radiolabeled murine IL-16 was prepared by in vitro translation and transcription (TNT T7, Promega) of a murine IL-16 cDNA construct in pET-16b expressing the C-terminal 119 amino acids of IL-16. Each coupled transcription-translation reaction was conducted in medium supplemented with [^35S]methionine according to the manufacturer's instructions.
A glutathione-S-transferase (GST)-murine D3D4 fusion protein was produced by subcloning the murine D3D4 domain cDNA sequences encoding the CD4 protein open reading frame from Phe^182 to Phe^372 into pGEX-5X.1 (Pharmacia). The GST-D3D4 fusion protein was purified according to the Pharmacia GST-fusion protein purification protocol using glutathione-conjugated Sepharose 4B beads in the presence of 2 mM dTT. […]
To investigate IL-16 interaction with the D3D4 of CD4, the GST-D3D4 fusion protein, or GST alone, was bound to the glutathione-conjugated Sepharose 4B beads. […] The GST-D3D4 or GST proteins were released from the beads by boiling in SDS gel loading buffer, and the supernatant was analyzed by 12% SDS-polyacrylamide gel electrophoresis (SDS-PAGE). The presence of ^35S-labeled mrIL16 was detected by autoradiography of the dried gel. […]

In experiment [5] the target is T2, murine rIL-16. The experiment in a line: IL-16-stimulated T-lymphocyte migration, human CD4 D4 point mutants. Type of experiment: cell-based. The following applies: human CD4 D4 wild type or point mutant, rIL-16 10^-9 M. The procedure:
Point mutations at Leu 348 and Leu 349 in human CD4 were prepared as follows.
Initially 100 ng of wild type human CD4 cDNA (Richard Axel, Columbia University, N.Y.) contained within the mammalian expression vector pcDNA3.1(−) (Invitrogen, Carlsbad, Calif.) was subjected to the polymerase chain reaction (PCR) in the presence of 125 ng of each set of primer pairs. PCR conditions were as follows:
The time for the elongation step varied according to the relationship of 2 minutes per kilobase of plasmid DNA length. The product was then subjected to restriction digestion with the enzyme Dpn for 1 h. at 37° C. Dpn is specific for methylated nucleotides and therefore will only cut the original wide type CD4-plasmid DNA. The transformation reaction required the addition of 1 μl of the digest to 50 μl of Epicurean Blue Eschericia coli which was incubated on ice for 30 min. and finally heat shocked 42° C., 45 sec to seal the supercompent bacteria. The resultant bacteria culture was selected on ampicillin plates and sequenced to confirm mutagenesis.
as §1, §2
(FIGS. 10A and 10B). […] (FIGS. 11A and 11B).

[6] abbreviates: first line of the peptide's pair.
The mark [7] stands for this setting: second line of the peptide's pair.

Take “DSGQVLLE (OTHER INFORMATION: Description of Artificial Sequence:IL-16 antagonist peptide) [aa 351-358 of human CD4]”: the “inhibition of IL-16-mediated biological activity (migration of human T-cells)” value in experiment [1] is “failed to inhibit”.
Regarding “GDKVKMDSRIQV [peptide C, 12-residue peptide, aa 351-362 of mouse CD4 D4]”, the “inhibition of rIL-16-induced splenocyte migration” value in experiment [2] (peptide 10^-6 M) was “inhibit”. In addition, the “IL-16-inhibitory activity (block of murine rIL-16-stimulated murine splenocyte migration)” value in experiment [2] is on record as “IL-16-inhibitory activity”. The “% IL-2R+ CELLS” value in experiment [3] (setting [6]) is 20%; in experiment [3] (setting [7]), 35%. Also, the “inhibition of IL-16-stimulated induction of IL-2R” value in experiment [3] (peptide 10^-7 M) is listed as “inhibitory”. In addition, the “IL-16 binding to GST-D3D4 in the presence of peptide” value in experiment [4] was “failed to reduce IL-16 binding”.
As to “GMWQCLLS (OTHER INFORMATION: Description of Artificial Sequence:IL-16 antagonist peptide) [aa 343-350 of human CD4]”, the “inhibition of IL-16-mediated biological activity (migration of human T-cells)” value in experiment [1] is reported as “inhibited all”.
“GMWQCLLSDSGQVLLE (OTHER INFORMATION: Description of Artificial Sequence:IL-16 antagonist peptide) [aa 343-358 of human CD4 D4]”: the “concentration at which maximal inhibition was achieved” value in experiment [1] (dose curve, IL-16-induced migration of human T-cells) was ≥ 10 µg/mL. Moreover, in experiment [1] (peptide 10^-10 M), the “block of IL-16-induced migration of human T-cells” value is listed as “blocked all”.
As to “KVSKREKAVWVLNPEA (OTHER INFORMATION: Description of Artificial Sequence:IL-16 antagonist peptide) [16-mer of human CD4 D4]”, the “effect on IL-16-induced migration of human T-cells” value in experiment [1] is recorded as “failed to effect”.
For the molecule “TGLWQCLLSEGD (OTHER INFORMATION: Description of Artificial Sequence:IL-16 antagonist peptide) [peptide B, 12-residue peptide, aa 341-352 of mouse CD4 D4]”, the “IL-16-inhibitory activity (block of murine rIL-16-stimulated murine splenocyte migration)” value in experiment [2] is reported as “IL-16-inhibitory activity”. Further, the “% IL-2R+ CELLS” value in experiment [3] (setting [6]) worked out at 22%; in experiment [3] (setting [7]) it was 26%. Further, the “inhibition of IL-16-stimulated induction of IL-2R” value in experiment [3] (peptide 10^-6 M) and in experiment [3] (peptide 10^-7 M) was “completely inhibited” in each case. The “IL-16 binding to GST-D3D4 in the presence of peptide” value in experiment [4] is “reduced to background”.
Regarding “TSPKLMLSLKLENKEA (OTHER INFORMATION: Description of Artificial Sequence:IL-16 antagonist peptide) [16-mer of human CD4 D4]”, in experiment [1], the “effect on IL-16-induced migration of human T-cells” value is “failed to effect”.

B1: NLTCEVWGPTSPKLMLSLKLENKEAKVSKREKAVWVLNPEAGMWQCLISDSGQVLLESNIKVLPTWSTPVQPM (peptide)
chain: NLTCEVWGPTSPKLMLSLKLENKEAKVSKREKAVWVLNPEAGMWQCLISDSGQVLLESNIKVLPTWSTPVQPM
modifications: OTHER INFORMATION: Description of Artificial Sequence:IL-16 antagonist peptide
notes: human CD4 D4 with Isoleucine substituted at position 349
With B1, the figures for the “inhibition of IL-16-stimulated T-lymphocyte migration” value in experiment [5] and in experiment [5] (listed as Leucine 349 was conservatively substituted with Isoleucine) were “maintained partial ability to inhibit” and “Partial inhibition”, respectively.
